Measurements taken from PMC2188280 (The Journal of Experimental Medicine, 1987).

B1: lymphocyte function-associated antigen 3 (LFA-3) on human erythrocytes (ligand, human (endogenous in erythrocytes), UniProt P19256 29-250, looked up)
chain: FSQQIYGVVYGNVTFHVPSNVPLKEVLWKKQKDKVAELENSEFRAFSSFKNRVYLDTVSGSLTIYNLTSSDEDEYEMESPNITDTMKFFLYVLESLPSPTLTCALTNGSIEVQCMIPEHYNSHRGLIMYSWDCPMEQCKRNSTSIYFKMENDLPQKIQCTLSNPLFNTTSSIILTTCIPSSGHSRHRYALIPIPLAVITTCIVLYMNGILKCDRKPDRTNSN
B2: CD2, purified, detergent-solubilized (receptor, human (endogenous in Jurkat or SKW3), UniProt P06729 25-351, looked up)
chain: KEITNALETWGALGQDINLDIPSFQMSDDIDDIKWEKTSDKKKIAQFRKEKETFKEKDTYKLFKNGTLKIKHLKTDDQDIYKVSIYDTKGKNVLEKIFDLKIQERVSKPKISWTCINTTLTCEVMNGTDPELNLYQDGKHLKLSQRVITHKWTTSLSAKFKCTAGNKVSKESSVEPVSCPEKGLDIYLIIGICGGGSLLMVFVALLVFYITKRKKQRSRRNDEELETRAHRVATEERGRKPHQIPASTPQNPATSQHPPPPPGHRSQAPSHRPPPPGHRVQHQPQKRPPAPSGTQVHQQKGPPLPRPRVQPKPPHGAAENSLSPSSN

Legend:
[1] = target: B2; assay: flow cytometry on cells
[2] = target: B1; assay: flow cytometry on cells

Row | Binder | Ka [1] [M⁻¹] | IC50 [2] [nM]
1 | B1 | ~3e+07 | –
2 | B2 | – | ~30
